Source: patent US7067277 (H LUNDBECK A S, dated 2006)

T1: human α1A adrenergic receptor (human, UniProt P35348 1-466)
T1 sequence (looked up): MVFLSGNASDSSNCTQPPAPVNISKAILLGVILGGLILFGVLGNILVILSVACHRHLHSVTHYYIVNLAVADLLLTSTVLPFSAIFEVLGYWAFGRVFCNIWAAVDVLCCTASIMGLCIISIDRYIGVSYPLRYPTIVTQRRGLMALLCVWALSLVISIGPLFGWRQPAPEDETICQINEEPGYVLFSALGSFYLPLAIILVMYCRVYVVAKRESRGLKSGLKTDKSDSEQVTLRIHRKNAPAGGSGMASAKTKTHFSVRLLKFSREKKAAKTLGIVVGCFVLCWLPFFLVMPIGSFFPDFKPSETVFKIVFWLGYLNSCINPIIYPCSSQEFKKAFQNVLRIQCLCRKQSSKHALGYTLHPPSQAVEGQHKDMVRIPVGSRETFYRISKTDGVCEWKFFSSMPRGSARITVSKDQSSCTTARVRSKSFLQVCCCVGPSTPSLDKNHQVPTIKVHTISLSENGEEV

T2: human 5HT1A receptor (human, UniProt P08908 1-422)
T2 sequence (looked up): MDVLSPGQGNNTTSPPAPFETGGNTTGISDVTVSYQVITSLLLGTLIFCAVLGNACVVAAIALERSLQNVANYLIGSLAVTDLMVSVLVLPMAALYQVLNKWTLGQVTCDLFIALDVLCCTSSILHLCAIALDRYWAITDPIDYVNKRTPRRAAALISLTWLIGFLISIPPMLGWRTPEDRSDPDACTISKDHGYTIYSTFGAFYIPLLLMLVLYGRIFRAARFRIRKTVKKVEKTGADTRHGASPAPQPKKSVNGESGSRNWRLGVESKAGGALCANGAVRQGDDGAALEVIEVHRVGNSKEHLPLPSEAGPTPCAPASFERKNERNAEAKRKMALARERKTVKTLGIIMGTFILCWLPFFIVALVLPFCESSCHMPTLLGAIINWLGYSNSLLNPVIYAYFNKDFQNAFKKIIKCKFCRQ

T3: human GALR3 receptor (human, UniProt O60755 1-368)
T3 sequence (looked up): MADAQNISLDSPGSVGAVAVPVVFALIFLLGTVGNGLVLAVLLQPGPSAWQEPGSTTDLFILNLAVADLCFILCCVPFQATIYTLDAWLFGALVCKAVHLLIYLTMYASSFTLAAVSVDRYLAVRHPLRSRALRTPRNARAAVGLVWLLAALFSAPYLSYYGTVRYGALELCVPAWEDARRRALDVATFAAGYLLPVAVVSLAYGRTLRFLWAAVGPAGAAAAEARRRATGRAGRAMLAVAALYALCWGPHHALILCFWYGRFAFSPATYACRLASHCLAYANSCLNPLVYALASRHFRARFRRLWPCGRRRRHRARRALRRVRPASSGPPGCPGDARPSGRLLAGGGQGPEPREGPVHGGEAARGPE

T4: human α2C adrenergic receptor (human, UniProt P18825 1-462)
T4 sequence (looked up): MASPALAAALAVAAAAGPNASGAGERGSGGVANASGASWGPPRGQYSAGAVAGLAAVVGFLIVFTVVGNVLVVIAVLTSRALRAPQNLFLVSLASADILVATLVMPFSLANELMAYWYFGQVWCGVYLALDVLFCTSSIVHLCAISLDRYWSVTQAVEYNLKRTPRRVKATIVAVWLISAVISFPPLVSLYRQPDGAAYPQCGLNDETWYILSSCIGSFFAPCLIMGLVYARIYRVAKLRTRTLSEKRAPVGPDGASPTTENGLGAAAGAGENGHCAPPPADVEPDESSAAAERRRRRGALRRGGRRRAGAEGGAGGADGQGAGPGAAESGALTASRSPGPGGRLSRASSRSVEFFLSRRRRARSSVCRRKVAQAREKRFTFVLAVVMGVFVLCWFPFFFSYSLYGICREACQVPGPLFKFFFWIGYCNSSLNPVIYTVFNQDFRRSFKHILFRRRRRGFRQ

T5: human α2B adrenergic receptor (human, UniProt P18089 1-450)
T5 sequence (looked up): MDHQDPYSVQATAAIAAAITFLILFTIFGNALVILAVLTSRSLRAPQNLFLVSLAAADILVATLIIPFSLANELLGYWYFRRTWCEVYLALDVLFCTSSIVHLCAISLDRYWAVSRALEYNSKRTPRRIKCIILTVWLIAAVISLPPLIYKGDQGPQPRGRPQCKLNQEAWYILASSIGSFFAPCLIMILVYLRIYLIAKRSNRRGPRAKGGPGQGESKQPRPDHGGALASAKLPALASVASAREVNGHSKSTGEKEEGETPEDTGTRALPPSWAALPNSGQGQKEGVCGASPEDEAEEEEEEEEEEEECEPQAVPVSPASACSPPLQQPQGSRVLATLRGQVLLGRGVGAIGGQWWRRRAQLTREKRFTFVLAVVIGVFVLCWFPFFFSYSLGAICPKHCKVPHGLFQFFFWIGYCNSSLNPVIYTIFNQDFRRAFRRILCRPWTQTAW

B1: Human Gαq/z5 (Ala→Ser substitution at position 171) (other)
chain: MTLESIMACCLSEEAKEARRINDEIERQLRRDKRDARRELKLLLLGTGESGKSTFIKQMRIIHGSGYSDEDKRGFTKLVYQNIFTAMQAMIRAMDTLKIPYKYEHNKAHAQLVREVDVEKVSAFENPYVDAIKSLWNDPGIQECYDRRREYQLSDSTKYYLNDLDRVADPSYLPTQQDVLRVRVPTTGIIEYPFDLQSVIFRMVDVGGQRSERRKWIHCFENVTSIMFLVALSEYDQVLVESDNENRMEESKALFRTIITYPWFQNSSVILFLNKKDLLEEKIMYSHLVDYFPEYDGPQRDAQAAREFILKMFVDLNPDSDKIIYSHFTCATDTENIRFVFAAVKDTILQLNLKYIGLC
B2: C. elegans Gαq/z5 (other)
chain: MACCLSEEAREQKRINQEIEKQLQRDKRNARRELKLLLLGTGESGKSTFIKQMRIIHGQGYSEEDKRAHIRLVYQNVFMAIQSMIRAMDTLDIKFGNESEELQEKAAVVREVDFESVTSFEEPYVSYIKELWEDSGIQECYDRRREYQLTDSAKYYLSDLRRLAVPDYLPTEQDILRVRVPTTGIIEYPFDLEQIIFRMVDVGGQRSERRKWIHCFENVTSIMFLVALSEYDQVLVECDNENRMEESKALFRTIITYPWFTNSSVILFLNKKDLLEEKILYSHLADYFPEYDGPPRDPIAAREFILKMFVDLNPDADKIIYSHFTCATDTENIRFVFAAVKDTILQHNLKYIGLC
B3: C. elegans Gαq/z9 (other)
chain: MACCLSEEAREQKRINQEIEKQLQRDKRNARRELKLLLLGTGESGKSTFIKQMRIIHGQGYSEEDKRAHIRLVYQNVFMAIQSMIRAMDTLDIKFGNESEELQEKAAVVREVDFESVTSFEEPYVSYIKELWEDSGIQECYDRRREYQLTDSAKYYLSDLRRLAVPDYLPTEQDILRVRVPTTGIIEYPFDLEQIIFRMVDVGGQRSERRKWIHCFENVTSIMFLVALSEYDQVLVECDNENRMEESKALFRTIITYPWFTNSSVILFLNKKDLLEEKILYSHLADYFPEYDGPPRDPIAAREFILKMFVDLNPDADKIIYSHFTCATDTENIRFVFAAVKDTILQNNLKYIGLC

Experiments:
Assay in all cases: cell-based or functional assay
[1] = molecular target: human β2 adrenergic receptor (human, UniProt P07550 1-413)
[2] = molecular target: T1, human α1A adrenergic receptor
[3] = molecular target: T2, human 5HT1A receptor
[4] = molecular target: human dopamine D1 receptor (human, UniProt P21728 1-446)
Chain of human dopamine D1 receptor (P21728 whole entry): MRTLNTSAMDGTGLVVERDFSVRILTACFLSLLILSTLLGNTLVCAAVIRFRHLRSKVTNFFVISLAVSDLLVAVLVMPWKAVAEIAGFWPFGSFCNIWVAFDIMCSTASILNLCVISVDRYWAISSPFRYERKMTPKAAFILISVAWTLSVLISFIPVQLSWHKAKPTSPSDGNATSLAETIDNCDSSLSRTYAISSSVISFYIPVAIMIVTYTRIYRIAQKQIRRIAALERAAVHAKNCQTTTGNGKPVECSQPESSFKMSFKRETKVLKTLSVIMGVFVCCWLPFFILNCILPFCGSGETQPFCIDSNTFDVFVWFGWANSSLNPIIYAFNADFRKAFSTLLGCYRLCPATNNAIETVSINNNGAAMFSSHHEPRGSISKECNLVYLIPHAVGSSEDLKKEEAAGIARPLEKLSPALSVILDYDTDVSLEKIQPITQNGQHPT

[5] = molecular target: T3, human GALR3 receptor
[6] = molecular target: T4, human α2C adrenergic receptor
[7] = molecular target: T5, human α2B adrenergic receptor
[8] = molecular target: human 5HT1D receptor (human, UniProt P28221 1-377)
Chain of human 5HT1D receptor (P28221 whole entry): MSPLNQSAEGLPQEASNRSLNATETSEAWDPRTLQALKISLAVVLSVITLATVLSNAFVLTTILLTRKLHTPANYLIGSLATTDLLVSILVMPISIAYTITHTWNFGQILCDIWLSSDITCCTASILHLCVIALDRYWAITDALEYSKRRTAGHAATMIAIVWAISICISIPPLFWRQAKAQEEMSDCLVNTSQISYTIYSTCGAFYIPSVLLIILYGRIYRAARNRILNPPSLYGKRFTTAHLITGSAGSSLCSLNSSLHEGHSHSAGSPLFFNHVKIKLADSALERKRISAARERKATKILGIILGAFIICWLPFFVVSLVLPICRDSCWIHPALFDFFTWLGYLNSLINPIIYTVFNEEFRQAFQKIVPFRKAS

[9] = molecular target: mouse 5HT5B receptor (mouse, UniProt P31387 1-370)
Chain of mouse 5HT5B receptor (P31387 whole entry): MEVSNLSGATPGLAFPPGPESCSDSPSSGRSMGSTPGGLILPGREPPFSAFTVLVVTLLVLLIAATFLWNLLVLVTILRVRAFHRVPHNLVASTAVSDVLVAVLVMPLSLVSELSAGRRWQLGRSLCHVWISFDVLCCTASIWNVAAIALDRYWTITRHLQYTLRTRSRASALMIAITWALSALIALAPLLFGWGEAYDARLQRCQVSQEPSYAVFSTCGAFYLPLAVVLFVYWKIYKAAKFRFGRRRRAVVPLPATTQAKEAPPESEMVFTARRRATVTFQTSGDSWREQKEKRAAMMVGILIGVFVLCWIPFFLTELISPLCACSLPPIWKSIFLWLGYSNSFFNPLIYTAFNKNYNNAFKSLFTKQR

[10] = molecular target: human 5HT1E receptor (human, UniProt P28566 1-365)
Chain of human 5HT1E receptor (P28566 whole entry): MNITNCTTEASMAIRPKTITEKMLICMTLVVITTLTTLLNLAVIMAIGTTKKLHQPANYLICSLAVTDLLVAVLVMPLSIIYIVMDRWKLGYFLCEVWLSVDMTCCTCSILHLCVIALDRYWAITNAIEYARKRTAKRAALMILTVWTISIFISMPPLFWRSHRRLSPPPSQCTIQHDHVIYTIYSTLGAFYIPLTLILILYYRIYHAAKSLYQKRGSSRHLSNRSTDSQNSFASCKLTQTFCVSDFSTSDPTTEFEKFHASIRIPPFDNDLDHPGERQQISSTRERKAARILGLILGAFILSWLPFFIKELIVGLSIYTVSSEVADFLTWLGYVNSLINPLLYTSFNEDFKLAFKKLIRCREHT

[11] = molecular target: rat NTR1 receptor (rat, UniProt P20789 1-424)
Chain of rat NTR1 receptor (P20789 whole entry): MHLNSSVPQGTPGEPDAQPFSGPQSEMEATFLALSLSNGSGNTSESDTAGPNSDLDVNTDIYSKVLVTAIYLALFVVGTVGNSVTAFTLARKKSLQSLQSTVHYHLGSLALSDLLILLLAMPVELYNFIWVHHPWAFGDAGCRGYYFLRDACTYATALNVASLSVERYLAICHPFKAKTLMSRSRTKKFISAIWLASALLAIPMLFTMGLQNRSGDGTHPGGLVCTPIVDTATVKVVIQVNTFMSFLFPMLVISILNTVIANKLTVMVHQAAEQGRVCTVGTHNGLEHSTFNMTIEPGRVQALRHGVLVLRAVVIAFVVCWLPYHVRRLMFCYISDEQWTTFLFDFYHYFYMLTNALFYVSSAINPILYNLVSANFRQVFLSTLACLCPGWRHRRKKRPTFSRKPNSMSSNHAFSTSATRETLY

Binder	max Ca2+ signal, COS-7, FLIPR; agonist NE [1] [fluorescence units]	max Ca2+ signal, COS-7, FLIPR; agonist NE [2] [fluorescence units]	max Ca2+ signal, COS-7, FLIPR; agonist 5HT [3] [fluorescence units]	max Ca2+ signal, COS-7, FLIPR; agonist DA [4] [fluorescence units]	max Ca2+ signal, COS-7, FLIPR; agonist GAL [5] [fluorescence units]	max Ca2+ signal, COS-7, FLIPR; agonist NE [6] [fluorescence units]	max Ca2+ signal, COS-7, FLIPR; agonist NE [7] [fluorescence units]	max Ca2+ signal, COS-7, FLIPR; agonist 5HT [8] [fluorescence units]	max Ca2+ signal, COS-7, FLIPR; agonist 5HT [9] [fluorescence units]	max Ca2+ signal, COS-7, FLIPR; agonist 5HT [10] [fluorescence units]	max Ca2+ signal, COS-7, FLIPR; agonist NT [11] [fluorescence units]
B1	128	14200	478	0	804	6110	4520	316	251	202	11200
B2	1840	9820	2000	12100	1520	4140	4980	414	265	229	14500
B3	1700	6600	3140	13100	2050	3870	5140	504	443	238	6110
